Biological target: cMpl receptor (human (cloned from Tf-1 cells, a human cell line)) (UniProt P40238)
Test: cell-based or functional assay

TPO (from UniProt P40225 22-353) (ligand)
Relative Fold Luciferase activity (c-Fos promoter), CMpl-R transfected NIH3T3 cells; +TPO: 2.32 fold
